{"source": "paper PMC3988174", "about": "“A Split-Ubiquitin Yeast Two-Hybrid Screen to Examine the Substrate Specificity of atToc159 and atToc132, Two Arabidopsis Chloroplast Preprotein Import Receptors” (PLoS ONE, 2014)", "data": [{"biological_target": "T1, atToc132 A- plus G-domains bait (Arabidopsis thaliana, UniProt Q9SLF3 1-794)", "T1 construct": "atToc132, A. thaliana, A- and G-domains, amino acids 1-794; also called Toc132AG; atToc132AG; source: yeast two-hybrid fusion (pBT3-STE, S. cerevisiae NMY51); not shown: STE2 leader (N-terminal 13 amino acids of S. cerevisiae Ste2), N-terminal, kept; Cub-LexA-VP16, C-terminal, kept", "T1 sequence (Q9SLF3 1-794)": "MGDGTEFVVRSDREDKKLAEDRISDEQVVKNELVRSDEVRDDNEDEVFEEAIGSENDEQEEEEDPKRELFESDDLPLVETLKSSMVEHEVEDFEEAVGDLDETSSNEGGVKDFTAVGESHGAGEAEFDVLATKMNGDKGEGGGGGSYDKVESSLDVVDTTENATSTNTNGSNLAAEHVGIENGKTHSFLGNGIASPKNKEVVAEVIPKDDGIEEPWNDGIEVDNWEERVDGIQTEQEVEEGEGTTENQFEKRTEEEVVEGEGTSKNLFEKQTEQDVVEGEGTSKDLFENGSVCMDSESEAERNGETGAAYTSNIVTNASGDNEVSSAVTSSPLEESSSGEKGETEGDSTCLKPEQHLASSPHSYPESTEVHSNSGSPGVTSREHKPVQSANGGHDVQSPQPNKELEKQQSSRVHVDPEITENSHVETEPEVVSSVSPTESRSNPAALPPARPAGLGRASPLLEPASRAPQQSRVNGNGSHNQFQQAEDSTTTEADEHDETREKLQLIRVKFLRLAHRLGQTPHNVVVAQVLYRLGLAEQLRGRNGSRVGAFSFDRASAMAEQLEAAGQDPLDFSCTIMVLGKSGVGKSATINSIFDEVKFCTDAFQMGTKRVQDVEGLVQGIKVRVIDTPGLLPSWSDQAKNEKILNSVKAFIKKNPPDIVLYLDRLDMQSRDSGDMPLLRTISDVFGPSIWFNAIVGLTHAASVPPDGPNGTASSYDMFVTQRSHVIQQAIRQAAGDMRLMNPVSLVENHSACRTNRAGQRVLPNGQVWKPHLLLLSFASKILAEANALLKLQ", "assay": "two-hybrid; pairwise split-ubiquitin yeast two-hybrid of isolated NubG-preys with Toc159G, Toc132G or Toc132AG bait in NMY51; growth on SD-LWHA (3-AT) and quantitative β-Gal assay, activity relative to a reference bait set to 100%", "conditions": "partners not purified", "units": {"relative strength of interaction (β-Gal) with Toc132AG against Toc132G, % change": "%", "% increase in strength of interaction (β-Gal) with Toc132AG against Toc132G": "%"}, "values": [{"binder": "Violaxanthin Deepoxidase (natural protein, Arabidopsis thaliana, UniProt Q39249 1-462, looked up) MAVATHCFTSPCHDRIRFFSSDDGIGRLGITRKRINGTFLLKILPPIQSADLRTTGGRSSRPLSAFRSGFSKGIFDIVPLPSKNELKELTAPLLLKLVGVLACAFLIVPSADAVDALKTCACLLKGCRIELAKCIANPACAANVACLQTCNNRPDETECQIKCGDLFENSVVDEFNECAVSRKKCVPRKSDLGEFPAPDPSVLVQNFNISDFNGKWYITSGLNPTFDAFDCQLHEFHTEGDNKLVGNISWRIKTLDSGFFTRSAVQKFVQDPNQPGVLYNHDNEYLHYQDDWYILSSKIENKPEDYIFVYYRGRNDAWDGYGGAVVYTRSSVLPNSIIPELEKAAKSIGRDFSTFIRTDNTCGPEPALVERIEKTVEEGERIIVKEVEEIEEEVEKEVEKVGRTEMTLFQRLAEGFNELKQDEENFVRELSKEEMEFLDEIKMEASEVEKLFGKALPIRKVR", "relative strength of interaction (β-Gal) with Toc132AG against Toc132G, % change": -29.9}, {"binder": "Photosystem I subunit F (natural protein, Arabidopsis thaliana, UniProt Q9SHE8 1-221, looked up) MSLTIPANLVLNPRSNKSLTQSVPKSSARFVCSDDKSSSSTPQSMKAFSAAVALSSILLSAPMPAVADISGLTPCKDSKQFAKREKQQIKKLESSLKLYAPESAPALALNAQIEKTKRRFDNYGKYGLLCGSDGLPHLIVNGDQRHWGEFITPGILFLYIAGWIGWVGRSYLIAISGEKKPAMKEIIIDVPLASRIIFRGFIWPVAAYREFLNGDLIAKDV", "relative strength of interaction (β-Gal) with Toc132AG against Toc132G, % change": -25.5}, {"binder": "Protochlorophyllide oxidoreductase B (natural protein, Arabidopsis thaliana, UniProt P21218 1-401, looked up) MALQAASLVSSAFSVRKDAKLNASSSSFKDSSLFGASITDQIKSEHGSSSLRFKREQSLRNLAIRAQTAATSSPTVTKSVDGKKTLRKGNVVVTGASSGLGLATAKALAETGKWNVIMACRDFLKAERAAKSVGMPKDSYTVMHLDLASLDSVRQFVDNFRRTETPLDVLVCNAAVYFPTAKEPTYSAEGFELSVATNHLGHFLLARLLLDDLKKSDYPSKRLIIVGSITGNTNTLAGNVPPKANLGDLRGLAGGLNGLNSSAMIDGGDFDGAKAYKDSKVCNMLTMQEFHRRFHEETGVTFASLYPGCIASTGLFREHIPLFRALFPPFQKYITKGYVSETESGKRLAQVVSDPSLTKSGVYWSWNNASASFENQLSEEASDVEKARKVWEISEKLVGLA", "relative strength of interaction (β-Gal) with Toc132AG against Toc132G, % change": -34.7}, {"binder": "Cytochrome b561-2 (natural protein, Arabidopsis thaliana, UniProt Q8L856 1-239, looked up) MAVRINAMAVTFVAHALAVIAAIMVLVWSISYRGGLAWEATNKNLIFNLHPVLMLIGFIILGGEAIISYKSLPLEKPVKKLIHLILHAIALALGIFGICAAFKNHNESHIPNLYSLHSWIGIGVISLYGFQWVYSFIVFFFPGGSTNLKSGLLPWHAMLGLFVYILAVGNAALGFLEKLTFLENGGLDKYGSEAFLINFTAIITILFGAFVVLTASAESPSPSPSVSNDDSVDFSYSAI", "% increase in strength of interaction (β-Gal) with Toc132AG against Toc132G": 49.6}, {"binder": "Photosystem I reaction center subunit PSI-N (natural protein, Arabidopsis thaliana, UniProt P49107 1-171, looked up) MAAMNSSVLTCSYAIAGSGSVELNQKVGLVNSSVGFGQKKQMIMPVIKAQRVVGDDVDGSNGRRSAMVFLAATLFSTAAVSASANAGVIDEYLERSKTNKELNDKKRLATSGANFARAFTVQFGSCKFPENFTGCQDLAKQKKVPFISEDIALECEGKDKYKCGSNVFWKW", "relative strength of interaction (β-Gal) with Toc132AG against Toc132G, % change": -25.4}, {"binder": "AIG2-like avirulence induced gene family protein (natural protein, Arabidopsis thaliana, UniProt Q9MBH2 1-169, looked up) MTSSDKSLSHDVFVYGSFQEPSVVNLILECSPVMVPAQLHGYHVYRLKGRLHACISPSENGLINGKILTGLTDSQLENLDMIEGSEYVRKTVEVVLTDTSEKKQVETYVWANKDDPNLYGEWDFEEWRRLHMDKFIEASTKFIEWKKNPDGRSREEFEKFVFDDPPTAA", "% increase in strength of interaction (β-Gal) with Toc132AG against Toc132G": 41.3}, {"binder": "Photosystem I light harvesting complex gene 2 (natural protein, Arabidopsis thaliana, UniProt Q9SYW8 1-257, looked up) MASSLCASSAIAAISSPSFLGGKKLRLKKKLTVPAVSRPDASVRAVAADPDRPIWFPGSTPPEWLDGSLPGDFGFDPLGLSSDPDSLKWNVQAEIVHCRWAMLGAAGIFIPEFLTKIGILNTPSWYTAGEQEYFTDKTTLFVVELILIGWAEGRRWADIIKPGSVNTDPVFPNNKLTGTDVGYPGGLWFDPLGWGSGSPAKLKELRTKEIKNGRLAMLAVMGAWFQHIYTGTGPIDNLFAHLADPGHATIFAAFTPK", "relative strength of interaction (β-Gal) with Toc132AG against Toc132G, % change": -36.4}, {"binder": "5′-Adenylylsulfate reductase 2 (natural protein, Arabidopsis thaliana, UniProt P92981 1-454, looked up) MALAVTSSSTAISGSSFSRSGASSESKALQICSIRLSDRTHLSQRRYSMKPLNAESHSRSESWVTRASTLIAPEVEEKGGEVEDFEQLAKKLEDASPLEIMDKALERFGDQIAIAFSGAEDVALIEYARLTGKPFRVFSLDTGRLNPETYRLFDAVEKQYGIRIEYMFPDAVEVQALVRNKGLFSFYEDGHQECCRVRKVRPLRRALKGLKAWITGQRKDQSPGTRSEIPIVQVDPVFEGLDGGVGSLVKWNPLANVEGADVWNFLRTMDVPVNALHAQGYVSIGCEPCTRPVLPGQHEREGRWWWEDAKAKECGLHKGNIKEEDGAADSKPAAVQEIFESNNVVALSKGGVENLLKLENRKEAWLVVLYAPWCPFCQAMEASYIELAEKLAGKGVKVAKFRADGEQKEFAKQELQLGSFPTILLFPKRAPRAIKYPSEHRDVDSLMSFVNLLR", "% increase in strength of interaction (β-Gal) with Toc132AG against Toc132G": 24.5}, {"binder": "Photosystem I light harvesting complex gene 1 (natural protein, Arabidopsis thaliana, UniProt Q01667 1-241, looked up) MASNSLMSCGIAAVYPSLLSSSKSKFVSAGVPLPNAGNVGRIRMAAHWMPGEPRPAYLDGSAPGDFGFDPLGLGEVPANLERYKESELIHCRWAMLAVPGILVPEALGYGNWVKAQEWAALPGGQATYLGNPVPWGTLPTILAIEFLAIAFVEHQRSMEKDPEKKKYPGGAFDPLGYSKDPKKLEELKVKEIKNGRLALLAFVGFCVQQSAYPGTGPLENLATHLADPWHNNIGDIVIPFN", "relative strength of interaction (β-Gal) with Toc132AG against Toc132G, % change": -24.5}, {"binder": "Low PSII accumulation 3 protein (natural protein) not shown", "relative strength of interaction (β-Gal) with Toc132AG against Toc132G, % change": -11.7}, {"binder": "Ferredoxin-thioredoxin reductase subunit A (natural protein, Arabidopsis thaliana, UniProt Q9SJ89 1-146, looked up) MNLQAVSCSFGFLSSPLGVTPRTSFRRFVIRAKTEPSEKSVEIMRKFSEQYARRSGTYFCVDKGVTSVVIKGLAEHKDSYGAPLCPCRHYDDKAAEVGQGFWNCPCVPMRERKECHCMLFLTPDNDFAGKDQTITSDEIKETTANM", "relative strength of interaction (β-Gal) with Toc132AG against Toc132G, % change": -15}, {"binder": "Cysteine synthase (natural protein) not shown", "% increase in strength of interaction (β-Gal) with Toc132AG against Toc132G": 175}, {"binder": "Photosystem I light harvesting complex gene 3 (natural protein, Arabidopsis thaliana, UniProt Q9SY97 1-273, looked up) MAAQALVSSSLTSSVQTARQIFGSKPVASASQKKSSFVVKAAATPPVKQGANRPLWFASSQSLSYLDGSLPGDYGFDPLGLSDPEGTGGFIEPRWLAYGEIINGRFAMLGAAGAIAPEILGKAGLIPAETALPWFQTGVIPPAGTYTYWADNYTLFVLEMALMGFAEHRRLQDWYNPGSMGKQYFLGLEKGLAGSGNPAYPGGPFFNPLGFGKDEKSLKELKLKEVKNGRLAMLAILGYFIQGLVTGVGPYQNLLDHLADPVNNNVLTSLKFH", "relative strength of interaction (β-Gal) with Toc132AG against Toc132G, % change": -26.8}]}]}
